The target of this assay is T1, Smac peptide AVPIAQKSEKY (Homo sapiens).
T1 chain: AVPIAQKSEKY
Description: ITC.

B1: WT-XIAP BIR3 241-356 (protein)
chain: SDAVSSDRNFPNSTNLPRNPSMADYEARIFTFGTWIYSVNKEQLARAGFYALGEGDKVKCFHCGGGLTDWKPSEDPWEQHAKWYPGCKYLLEQKGQEYINNIHLTHSLEECLVRTT
B1 had a Kd of 428 nM.

The values above are taken from paper PMC6876990 (2019).
